One block for each binder: values may come before it.
How the values were obtained:
[1] = target: T1, reduced recombinant human IL-33 (His-tagged, amino acids 112-270) (human, UniProt O95760 112-270); test: SPR (Biacore), antibody captured, reduced hIL-33 as analyte
T1 construct: range 112-270; Expressed in E. coli; kept in the reduced state (all four cysteines free) with TCEP; also called reduced hIL-33; hIL-33
T1 sequence: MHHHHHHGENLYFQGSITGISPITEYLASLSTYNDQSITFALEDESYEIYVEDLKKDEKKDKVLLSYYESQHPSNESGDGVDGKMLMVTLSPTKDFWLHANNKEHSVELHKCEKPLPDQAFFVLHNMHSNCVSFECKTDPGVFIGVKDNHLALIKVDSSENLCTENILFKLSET
Experimental: (§1) A Series S Protein A sensor chip (Cytiva, Marlborough, MA, USA) was used to capture recombinant chimeric human IgG versions of anti-hIL-33 Abs using a BIACORE® 8 k instrument (Cytiva, Marlborough, MA, USA). Antibody binding to human histidine-tagged hIL-33 (Genentech, South San Francisco, CA, USA) was measured using multi-cycle kinetics. Sensorgrams were recorded using an injection time of 2 minutes with a flow rate of 30 μL/min, at 25° C. or 37° C., and with a running buffer of 10 mM N-2-hydroxyethylpiperazine-N′-2-ethanesulfonic acid (HEPES), pH 7.4, 150 mM sodium chloride (NaCl), 3 mM ethylenediaminetetraacetic acid (EDTA), and 0.005% TWEEN® 20. After injection, dissociation of hIL-33 from the antibody was monitored for 10 minutes in running buffer. The surface was regenerated between binding cycles with a 30 μL injection of 10 mM Glycine hydrochloric acid (HCl) pH 1.5. After subtraction of a blank containing running buffer only, sensorgrams were analyzed using a 1:1 Langmuir binding model with software supplied by the manufacturer to calculate the kinetics and binding constants.

[2] = target: T1, reduced recombinant human IL-33 …; test: SPR (Biacore 8K), antibody captured on Protein A chip, reduced hIL-33 as analyte, multi-cycle kinetics, 25 C
Experimental: as §1

- Kd [1]: 487 pM
- Kd [2]: 777 pM
- koff [2]: 0.000243 s⁻¹
- kon [2]: 312000 M⁻¹ s⁻¹
B1: rat/human chimeric anti-hIL-33 3F10 MAb (antibody, human IgG1, kappa, V domains shown)
VH: QVQLEESGPGLVQPSQTLSLTCTVSGFSLTSQNVHWVRQPPGKGLEWMGRMRFNGDTSYNSTLKSRLSISRDTSKNQVFLRLNSLQTDDTGTYYCARQRDNYGSYYFDDWGQGIMVTVSS
VL: DTVLTQSPALAVSPGERVTISCRASESVLTLLNWYQQKPGQHPKLLIYLASHLESGVPARFSGRGSGTDFTLTIDPVEADDTASYYCQQSWIDPWTFGGGTTLELKR
notes: Rat variable domains on human IgG1/kappa constant regions; also called clone 3F10; capture MAb

- Kd [1]: 338 pM
- Kd [2]: 291 pM
- koff [2]: 0.000146 s⁻¹
- kon [2]: 501000 M⁻¹ s⁻¹
B2: rat IgG2a anti-human IL-33 clone 15.21C7 (antibody, V domains shown)
VH: EVQLVESGGGLVQPGTSLKLSCVASGFTFSDFWMSWVRQTPGKTMEWIADIKNDGSHTKYAPSLQNRFTISRDNAKNTLYLEVTDVRSEDTATYYCTRVGGTYTAYYWGHGVMVTVSS
VL: DIQMTQTPSSMPASLGERVTLSCRTSQGINTYLNWYQQKPDGTITPLIHYTSNLESGVPSRFSGSGFGTDYFLTISSLEPEDFAMYFCQQYASSPWTFGGGTKLELKK
notes: also called rat anti-reduced hIL-33 15.21C7 IgG2a

Reference: US20250002575A1 (Genentech, published 2025)
